Patent US20070185311A1 (EPIX MEDICAL INC A DELAWARE, published 2007)
Starred links: 1 amine or outer side, 2 acyl side, 3 side chain; linkers in the order of their positions; H or OH if unused. Positions of bridges follow the written chain, without caps; N, C: chain ends. Non-standard residues stand in square brackets, D forms with d. Primed or numbered codes have the meaning given here. No end group written: not given here. Tyr(3-NO2) = N[C@@H](Cc1ccc(O)c([N+](=O)[O-])c1)C(=O)O; Phe(4-OMe) = COc1ccc(C[C@H](N[*:1])C(=O)[*:2])cc1; Phe(3-CF3) = N[C@@H](Cc1cccc(C(F)(F)F)c1)C(=O)O; Phe(4-CF3) = N[C@@H](Cc1ccc(C(F)(F)F)cc1)C(=O)O; Bpa = N[C@@H](Cc1ccc(C(=O)c2ccccc2)cc1)C(=O)O; Phe(4-CH2NH2) = NCc1ccc(C[C@H](N)C(=O)O)cc1; Tyr(3-Cl) = N[C@@H](Cc1ccc(O)c(Cl)c1)C(=O)O; Bip = N[C@@H](Cc1ccc(-c2ccccc2)cc1)C(=O)O; Tyr(3-I) = N[C@@H](Cc1ccc(O)c(I)c1)C(=O)O; Phe(3-OMe) = COc1cccc(C[C@H](N)C(=O)O)c1; Phe(4-Br) = N[C@@H](Cc1ccc(Br)cc1)C(=O)O; Phe(4-CN) = N#Cc1ccc(C[C@H](N)C(=O)O)cc1; Phe(4-NH2) = Nc1ccc(C[C@H](N)C(=O)O)cc1; Phe(2-OMe) = COc1ccccc1C[C@H](N)C(=O)O; Phe(3-Me) = Cc1cccc(C[C@H](N)C(=O)O)c1; Phe(4-F) = N[C@@H](Cc1ccc(F)cc1)C(=O)O; Phe(4-I) = N[C@@H](Cc1ccc(I)cc1)C(=O)O; Phe(4-Me) = Cc1ccc(C[C@H](N)C(=O)O)cc1; 1Nal = N[C@@H](Cc1cccc2ccccc12)C(=O)O; Hyp = O=C(O)[C@@H]1C[C@@H](O)CN1; hPhe = N[C@@H](CCc1ccccc1)C(=O)O; 3Pal = N[C@@H](Cc1cccnc1)C(=O)O; 4Pal = N[C@@H](Cc1ccncc1)C(=O)O; Phe(4-Et)′ = not defined here; Tle = CC(C)(C)[C@H](N)C(=O)O; Tyr(2-F)′ = not defined here; Nle = CCCC[C@H](N)C(=O)O; MTyr = not defined here; nTyr = not defined here; Cmp = not defined here

Target: DD(E) fragment of fibrin
Experiment: affinity to DD(E) fragment of fibrin

Binder	Kd [nM]
[Tyr(3-NO2)]HC[Hyp][Tyr(3-I)]DLCHI (disulfide 3-8 (inferred)) [Y(3-NO2)-H-C-Hyp-Y(3-I)-D-L-C-H-I]	< 100
FHC[Hyp][Tyr(3-I)]DLCH[Nle] (disulfide 3-8 (inferred); not fully specified) [F-H-C-Hyp-Y(3-I)-D-L-C-H-Nle]	< 100
[Phe(4-OMe)][His(Bzl)]C[Hyp][Tyr(3-I)]DLCHI (disulfide 3-8 (inferred)) [F(4-OMe)-H(Bzl)-C-Hyp-Y(3-I)-D-L-C-H-I]	< 100
[Phe(4-OMe)]HC[Hyp][Tyr(3-Cl)]DLCHI (disulfide 3-8 (inferred)) [F(4-OMe)-H-C-Hyp-Y(3-Cl)-D-L-C-H-I]	< 100
[hPhe]HC[Hyp][Tyr(3-I)]DLCHI (disulfide 3-8 (inferred)) [Hfe-H-C-Hyp-Y(3-I)-D-L-C-H-I]	< 100
FHC[Hyp][Tyr(3-I)]DLCH[Phe(4-Et)′] (disulfide 3-8 (inferred)) [F-H-C-Hyp-Y(3-I)-D-L-C-H-F(4-Et)]	< 100
FHC[Hyp][Tyr(3-I)]DLCHI (disulfide 3-8 (inferred)) [F-H-C-Hyp-Y(3-I)-D-L-C-H-I]	< 100
FHC[Hyp][Tyr(3-I)]DLCH[Phe(3-CF3)] (disulfide 3-8 (inferred)) [F-H-C-Hyp-Y(3-I)-D-L-C-H-F(3-CF3)]	< 100
[Phe(3-Me)]HC[Hyp][Tyr(3-I)]DLCHI (disulfide 3-8 (inferred)) [F(3-Me)-H-C-Hyp-Y(3-I)-D-L-C-H-I]	< 100
[Tyr(3-I)]HC[Hyp][Tyr(3-I)]DLCHI (disulfide 3-8 (inferred)) [Y(3-I)-H-C-Hyp-Y(3-I)-D-L-C-H-I]	< 100
[Phe(4-F)]HC[Hyp][Tyr(3-I)]DLCHI (disulfide 3-8 (inferred)) [F(4-F)-H-C-Hyp-Y(3-I)-D-L-C-H-I]	< 100
[Phe(4-OMe)]HC[Hyp][Tyr(3-Cl)]DLCH[Bpa]L (disulfide 3-8 (inferred)) [F(4-OMe)-H-C-Hyp-Y(3-Cl)-D-L-C-H-Bpa-L]	< 100
FHC[Hyp][Tyr(3-I)]DLCH[Bpa] (disulfide 3-8 (inferred)) [F-H-C-Hyp-Y(3-I)-D-L-C-H-Bpa]	< 100
FHC[Hyp][Tyr(3-I)]DLCH[Bip] (disulfide 3-8 (inferred)) [F-H-C-Hyp-Y(3-I)-D-L-C-H-Bip]	< 100
[1Nal]HC[Hyp][Tyr(3-I)]DLCHI (disulfide 3-8 (inferred)) [1Nal-H-C-Hyp-Y(3-I)-D-L-C-H-I]	< 100
[3Pal]HC[Hyp][Tyr(3-I)]DLCHI (disulfide 3-8 (inferred)) [3Pal-H-C-Hyp-Y(3-I)-D-L-C-H-I]	< 100
LPCDYYGTCXD (Bip at 10) [L-P-C-D-Y-Y-G-T-C-Bip-D]	< 10000
[Phe(4-CF3)]HC[Hyp][Tyr(3-I)]DLCHI (disulfide 3-8 (inferred)) [F(4-CF3)-H-C-Hyp-Y(3-I)-D-L-C-H-I]	< 100
[Phe(4-OMe)]HC[Hyp][Tyr(3-I)]DLCH[Bpa] (disulfide 3-8 (inferred)) [F(4-OMe)-H-C-Hyp-Y(3-I)-D-L-C-H-Bpa]	< 100
FHC[Hyp][Tyr(3-I)]DLC[3Pal]I (disulfide 3-8 (inferred)) [F-H-C-Hyp-Y(3-I)-D-L-C-3Pal-I]	< 100
[Phe(2-OMe)]HC[Hyp][Tyr(3-I)]DLCHI (disulfide 3-8 (inferred)) [F(2-OMe)-H-C-Hyp-Y(3-I)-D-L-C-H-I]	< 100
[Phe(4-OMe)]HC[Hyp][Tyr(3-Cl)]DLCHIL (disulfide 3-8 (inferred)) [F(4-OMe)-H-C-Hyp-Y(3-Cl)-D-L-C-H-I-L]	< 100
[Phe(3-OMe)]HC[Hyp][Tyr(3-I)]DLCHI (disulfide 3-8 (inferred)) [F(3-OMe)-H-C-Hyp-Y(3-I)-D-L-C-H-I]	< 100
[Phe(4-Br)]HC[Hyp][Tyr(3-I)]DLCHI (disulfide 3-8 (inferred)) [F(4-Br)-H-C-Hyp-Y(3-I)-D-L-C-H-I]	< 100
[Phe(4-NH2)]HC[Hyp][Tyr(3-I)]DLCHI (disulfide 3-8 (inferred)) [F(4-NH2)-H-C-Hyp-Y(3-I)-D-L-C-H-I]	< 100
FHC[Hyp][Tyr(3-I)]DLCH[Phe(4-CF3)] (disulfide 3-8 (inferred)) [F-H-C-Hyp-Y(3-I)-D-L-C-H-F(4-CF3)]	< 100

Binder	Kd [nM]
[4Pal]HC[Hyp][Tyr(3-I)]DLCHI (disulfide 3-8 (inferred)) [4Pal-H-C-Hyp-Y(3-I)-D-L-C-H-I]	< 100
FHC[Hyp][Tyr(3-I)]DLCH[hPhe] (disulfide 3-8 (inferred)) [F-H-C-Hyp-Y(3-I)-D-L-C-H-Hfe]	< 100
F[His(Bzl)]C[Hyp][Tyr(3-Cl)]DLCHIL (disulfide 3-8 (inferred)) [F-H(Bzl)-C-Hyp-Y(3-Cl)-D-L-C-H-I-L]	< 100
[Phe(4-OMe)][His(Bzl)]C[Hyp][Tyr(3-Cl)]DLCHI (disulfide 3-8 (inferred)) [F(4-OMe)-H(Bzl)-C-Hyp-Y(3-Cl)-D-L-C-H-I]	< 100
LPCDYYGTCXD (Bip at 10; dD at 11) [L-P-C-D-Y-Y-G-T-C-Bip-dD]	< 10000
[Phe(4-CH2NH2)]HC[Hyp][Tyr(3-I)]DLCHI (disulfide 3-8 (inferred)) [F(4-CH2NH2)-H-C-Hyp-Y(3-I)-D-L-C-H-I]	< 100
LPCDYYGTCXD (Me-Bip at 10) [L-P-C-D-Y-Y-G-T-C-Me-Bip-D]	< 10000
FHC[Hyp][Tyr(3-Cl)]DLCHIL (disulfide 3-8 (inferred)) [F-H-C-Hyp-Y(3-Cl)-D-L-C-H-I-L]	< 100
[Phe(4-Me)]HC[Hyp][Tyr(3-I)]DLCHI (disulfide 3-8 (inferred)) [F(4-Me)-H-C-Hyp-Y(3-I)-D-L-C-H-I]	< 100
[Phe(4-OMe)][His(Bzl)]C[Hyp][Tyr(3-I)]DLCH[Bpa] (disulfide 3-8 (inferred)) [F(4-OMe)-H(Bzl)-C-Hyp-Y(3-I)-D-L-C-H-Bpa]	< 100
[DopaMe2]HC[Hyp][Tyr(3-I)]DLCHI (disulfide 3-8 (inferred)) [DopaMe2-H-C-Hyp-Y(3-I)-D-L-C-H-I]	< 100
[Phe(4-CN)]HC[Hyp][Tyr(3-I)]DLCHI (disulfide 3-8 (inferred)) [F(4-CN)-H-C-Hyp-Y(3-I)-D-L-C-H-I]	< 100
LPCDYYGTC[MeL][Cmp] (cysteine pairing not given here; reading uncertain; also: printed as L-P-C-D-Y-Y-G-T-C-MeL-Cmp) [L-P-C-D-Y-Y-G-T-C-MeL-Cmp]	< 10000
[Phe(4-OMe)]HC[Hyp][Tyr(3-I)]DLCHI (disulfide 3-8 (inferred)) [F(4-OMe)-H-C-Hyp-Y(3-I)-D-L-C-H-I]	< 100
FHC[Hyp][Tyr(3-I)]DLCH[Phe(4-OMe)] (disulfide 3-8 (inferred)) [F-H-C-Hyp-Y(3-I)-D-L-C-H-F(4-OMe)]	< 100
WEC[Hyp][Tyr(3-Cl)]GLCWIQ (disulfide 3-8 (inferred)) [W-E-C-Hyp-Y(3-Cl)-G-L-C-W-I-Q]	< 100
[Phe(34-F2)]HC[Hyp][Tyr(3-I)]DLCHI (disulfide 3-8 (inferred)) [F(34-F2)-H-C-Hyp-Y(3-I)-D-L-C-H-I]	< 100
[nTyr]HC[Hyp][Tyr(3-I)]DLCHI (disulfide 3-8 (inferred); reading uncertain) [nTyr-H-C-Hyp-Y(3-I)-D-L-C-H-I]	< 100
FHC[Hyp][Tyr(3-Cl)]DLCHI (disulfide 3-8 (inferred)) [F-H-C-Hyp-Y(3-Cl)-D-L-C-H-I]	< 100
[Tyr(2-F)′]HC[Hyp][Tyr(3-I)]DLCHI (disulfide 3-8 (inferred)) [Y(2-F)-H-C-Hyp-Y(3-I)-D-L-C-H-I]	< 100
FHC[Hyp][Tyr(3-I)]DLCHIL (disulfide 3-8 (inferred)) [F-H-C-Hyp-Y(3-I)-D-L-C-H-I-L]	< 100
[Phe(4-I)]HC[Hyp][Tyr(3-I)]DLCHI (disulfide 3-8 (inferred)) [F(4-I)-H-C-Hyp-Y(3-I)-D-L-C-H-I]	< 100
[MTyr]HC[Hyp][Tyr(3-I)]DLCHI (disulfide 3-8 (inferred); reading uncertain) [MTyr-H-C-Hyp-Y(3-I)-D-L-C-H-I]	< 100
FHC[Hyp][Tyr(3-I)]DLCH[Tle] (disulfide 3-8 (inferred)) [F-H-C-Hyp-Y(3-I)-D-L-C-H-Tle]	< 100
[Phe(4-OMe)]HC[Hyp][Tyr(3-I)]DLCH[Bpa]L (disulfide 3-8 (inferred)) [F(4-OMe)-H-C-Hyp-Y(3-I)-D-L-C-H-Bpa-L]	< 100
[Phe(3-CF3)]HC[Hyp][Tyr(3-I)]DLCHI (disulfide 3-8 (inferred)) [F(3-CF3)-H-C-Hyp-Y(3-I)-D-L-C-H-I]	< 100
